# Results as given in publication PMC2928128 (Human Molecular Genetics, 2010).
# T1: harmonin-a Nter-PDZ1-PDZ2 fragment (residues 1-299) (UniProt Q9ES64 1-299)
# T1 sequence (looked up): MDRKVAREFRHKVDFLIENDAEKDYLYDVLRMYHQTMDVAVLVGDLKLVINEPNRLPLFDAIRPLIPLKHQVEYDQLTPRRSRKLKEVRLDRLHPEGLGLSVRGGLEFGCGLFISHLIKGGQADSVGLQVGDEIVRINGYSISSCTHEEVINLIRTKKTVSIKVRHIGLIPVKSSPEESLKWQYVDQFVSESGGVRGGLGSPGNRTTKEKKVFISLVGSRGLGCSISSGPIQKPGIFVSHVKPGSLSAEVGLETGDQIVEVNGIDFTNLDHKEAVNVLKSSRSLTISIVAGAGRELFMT
# T2: harmonin-a Nter-PDZ1 fragment (residues 1-203) (UniProt Q9ES64 1-203)
# T2 sequence (looked up): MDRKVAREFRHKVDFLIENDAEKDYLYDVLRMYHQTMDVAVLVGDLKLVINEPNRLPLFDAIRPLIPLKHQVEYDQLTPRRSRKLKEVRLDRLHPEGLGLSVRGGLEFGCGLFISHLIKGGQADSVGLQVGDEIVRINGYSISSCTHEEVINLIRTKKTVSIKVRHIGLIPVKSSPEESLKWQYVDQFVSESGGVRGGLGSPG
# T3: harmonin-a Nter domain (residues 1-79) (UniProt Q9ES64 1-79)
# T3 sequence (looked up): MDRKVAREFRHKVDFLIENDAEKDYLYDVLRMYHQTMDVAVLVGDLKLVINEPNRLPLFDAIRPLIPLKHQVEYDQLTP
# B1: GST-CDH23Δexon68 (cytoplasmic region of cadherin-23 lacking the exon68-encoded sequence, residues 847-1079) (domain or fragment)
# chain: NWYYRTVHKRKLKAIVAGSAGNRGFIDIMDMPNTNKYSFDGANPVWLDPFCRNLELAAQAEHEDDLPENLSEIADLWNSPTRTHGTFGREPAAVKPDDDRYLRAAIQEYDNIAKLGQIIREGPIKLIQTELDEEPGDHSPGQGSLRFRHKPPVELKGPDGIHVVHGSTGTLLATDLNSLPEEDQKGLGRSLETLTAAEATAFERNARTESAKSTPLHKLRDVIMETPLEITEL
# B2: full-length harmonin-a (natural protein)
# chain: MDRKVAREFRHKVDFLIENDAEKDYLYDVLRMYHQTMDVAVLVGDLKLVINEPNRLPLFDAIRPLIPLKHQVEYDQLTPRRSRKLKEVRLDRLHPEGLGLSVRGGLEFGCGLFISHLIKGGQADSVGLQVGDEIVRINGYSISSCTHEEVINLIRTKKTVSIKVRHIGLIPVKSSPEESLKWQYVDQFVSESGGVRGGLGSPGNRTTKEKKVFISLVGSRGLGCSISSGPIQKPGIFVSHVKPGSLSAEVGLETGDQIVEVNGIDFTNLDHKEAVNVLKSSRSLTISIVAGAGRELFMTDRERLEEARQRELQRQELLMQKRLAMESNKILQEQQEMERQRRKEIAQKAAEENERYRKEMEQISEEEEKFKKQWEEDWGSKEQLILPKTITAEVHPVPLRKPKYDQGVEPADHLDGSTEEQRQQDFRKYEEGFDPYSMFSPEQIAGKDVRLLRIKKEGSLDLALEGGVDSPVGKVVVSAVYEGGAAERHGGVVKGDEIMAINGKIVTDYTLAEAEAALQKAWNQGGDWIDLVVAVCPPKEYDDEL
# B3: GST-CDH23 + exon68ΔITEL (residues 847-1110) (domain or fragment)
# chain: NWYYRTVHKRKLKAIVAGSAGNRGFIDIMDMPNTNKYSFDGANPVWLDPFCRNLELAAQAEHEDDLPENLSEIADLWNSPTRTHGTFGREPAAVKPDDDRYLRAAIQEYDNIAKLGQIIREGPIKGSLLKVVLEDYLRLKKLFAQRMVQKASSCHSSISELIQTELDEEPGDHSPGQGSLRFRHKPPVELKGPDGIHVVHGSTGTLLATDLNSLPEEDQKGLGRSLETLTAAEATAFERNARTESAKSTPLHKLRDVIMETPLE
# B4: GST-CDH23 + exon68 (cytoplasmic region of cadherin-23 including the exon68-encoded sequence, residues 847-1114) (domain or fragment)
# chain: NWYYRTVHKRKLKAIVAGSAGNRGFIDIMDMPNTNKYSFDGANPVWLDPFCRNLELAAQAEHEDDLPENLSEIADLWNSPTRTHGTFGREPAAVKPDDDRYLRAAIQEYDNIAKLGQIIREGPIKGSLLKVVLEDYLRLKKLFAQRMVQKASSCHSSISELIQTELDEEPGDHSPGQGSLRFRHKPPVELKGPDGIHVVHGSTGTLLATDLNSLPEEDQKGLGRSLETLTAAEATAFERNARTESAKSTPLHKLRDVIMETPLEITEL
# Key:
# Experiment in all cases: SPR
# [1] = molecular target: T1, harmonin-a Nter-PDZ1-PDZ2 fragment …
# [2] = molecular target: T2, harmonin-a Nter-PDZ1 fragment (residues …)
# [3] = molecular target: T3, harmonin-a Nter domain (residues 1-79)
# [4] = molecular target: B4
# [5] = molecular target: B1
# [6] = molecular target: B3
# [7] = molecular target: GST-CDH23Δexon68ΔITEL (residues 847-1075)
Kd [1] [nM],Kd [2] [nM],Kd [3] [nM],Kd [4] [nM],Kd [5] [nM],Kd [6] [nM],Kd [7] [nM],Binder
42 ± 11,79 ± 10,> 5000,,,,,B1
,,,97 ± 14,79 ± 11,127 ± 12,48 ± 6,B2
66 ± 13,106 ± 5,> 5000,,,,,B3
64 ± 6,94 ± 8,> 5000,,,,,B4
